# Patent US20070166384A1, “Methods , composition and preparations for delivery of immune response modifiers” (priority 2004, published 2007)
# Experiments:
# [1] = Solubility in normal saline and phosphate buffered saline (saturated solutions, 25° C., 7 days, HPLC); format: physicochemical; conditions: for solubility at 7 days: thermodynamic from solid; for Solubility Fold Increase: Example 6 over IRM2
# Description: The solubility of IRM2 and the IRM-polymer complex exemplified in Example 6 was determined in normal saline and phosphate buffered saline (PBS) at pH 7.4. Each compound was added to each medium until saturation had been reached. Vials containing the saturated solutions were capped and placed into a shaking water bath at 25° C. After 7 days the saturated solutions were filtered and analyzed for compound content on an HPLC using a Zorbax Bonus-RP 150×4.6 mm 5 μm particle size column. IRM2 was eluted with a 25:75 ratio of 0.05% trifuoro-acetic acid (TFA) in Acetonitrile to 0.1% TFA in water. Example 6 was eluted with a 10:90 ratio of 0.05% TFA in Acetonitrile to 0.1% TFA in water for three minutes, gradient to a 75:25 ratio of 0.05% TFA in Acetonitrile to 0.1% TFA in water for seven minutes and held at the 75:25 ratio for eight minutes. All HPLC runs were set at a flow rate of 1 mL/min, 20 μL injection volume, and a 254 nm UV detection wavelength. Quantitation was performed against external standards. Results are shown in Table 5 expressed in millimolar (mM) and solubility fold increase of Example 6 over IRM2.
# [2] = system: Peripheral blood mononuclear cells (PBMC); experiment: Cytokine induction in an in vitro human blood cell system (IFN-α and TNF-α secreted into culture media); format: cell-based; conditions: 18 to 24 hours; for Minimum Effective Concentration (µM) IFN-α: lowest tested concentration inducing IFN-α over fixed level (usually 20 pg/mL); for Minimum Effective Concentration (µM) TNF: lowest tested concentration inducing TNF-α over fixed level (usually 40 pg/mL)
# Excerpt: An in vitro human blood cell system is used to assess cytokine induction. Activity is based on the measurement of interferon (α) and tumor necrosis factor (α) (IFN-α and TNF-α, respectively) secreted into culture media as described by Testerman et. al. in “Cytokine Induction by the Immunomodulators Imiquimod and S-27609,” Journal of Leukocyte Biology, 58, 365-372 (September, 1995).
# Whole blood from healthy human donors is collected by venipuncture into vacutainer tubes or syringes containing EDTA. Peripheral blood mononuclear cells (PBMC) are separated from whole blood by density gradient centrifugation using HISTOPAQUE-1077 (Sigma, St. Louis, Mo.) or Ficoll-Paque Plus (Amersham Biosciences Piscataway, N.J.). Blood is diluted 1:1 with Dulbecco's Phosphate Buffered Saline (DPBS) or Hank's Balanced Salts Solution (HBSS). Alternately, whole blood is placed in Accuspin (Sigma) or LeucoSep (Greiner Bio-One, Inc., Longwood, Fla.) centrifuge frit tubes containing density gradient medium. The PBMC layer is collected and washed twice with DPBS or HBSS and re-suspended at 4×10^6 cells/mL in RPMI complete. The PBMC suspension is added to 96 well flat bottom sterile tissue culture plates containing an equal volume of RPMI complete media containing test compound.
# The compounds are solubilized in dimethyl sulfoxide (DMSO). The DMSO concentration should not exceed a final concentration of 1% for addition to the culture wells. The compounds are generally tested at concentrations ranging from 30-0.014 μM. Controls include cell samples with media only, cell samples with DMSO only (no compound), and cell samples with reference compound. […]
# Following incubation the plates are centrifuged for 10 minutes at 1000 rpm (approximately 200×g) at 4° C. […] The samples are analyzed for IFN-α by ELISA and for TNF-α by IGEN/BioVeris Assay.
# IFN-α concentration is determined with a human multi-subtype calorimetric sandwich ELISA (Catalog Number 41105) from PBL Biomedical Laboratories, Piscataway, N.J. Results are expressed in pg/mL.
# The TNF-α concentration is determined by ORIGEN M-Series Immunoassay and read on an IGEN M-8 analyzer from BioVeris Corporation, formerly known as IGEN International, Gaithersburg, Md. […]
# Analysis of the data has two steps. First, the greater of the mean DMSO (DMSO control wells) or the experimental background (usually 20 pg/mL for IFN-α and 40 pg/mL for TNF-α) is subtracted from each reading. If any negative values result from background subtraction, the reading is reported as
# “*”, and is noted as not reliably detectable. […] The adjustment ratio is the area of the reference compound in the new experiment divided by the expected area of the reference compound based on the past 61 experiments (unadjusted readings). […]
# [3] = Liberation of IRM1 from IRM-polymer complex in buffered saline at 37° C., measured by HPLC; format: physicochemical; conditions: 0.1 mg/ml
# Description: Samples were placed in a thermostated autosampler with the temperature controlled at 37° C. Samples were injected periodically over the course of the experiment and the % of IRM1 liberated was measured by an HPLC system equipped with a thermostatted autosampler set at 37° C. and a Zorbax SB C18, (3.0×150 mm), 3.5 μm particle size column with a column temperature of 40° C. Samples were eluted with a mobile phase of 1% acetic acid in water and methanol. The mobile phase was run at a ratio of 55:45 of 1% acetic acid in water to methanol for five minutes, gradient to 5:95 for ten minutes, held at 5:95 for five minutes, gradient to 55:45 in less than a minute, and held at 55:45 for ten minutes. All HPLC runs were set at a flow rate of 0.5 mL/min, 20 μL injection volume, and a 254 nm UV detection wavelength. The % IRM1 was determined by normalizing the IRM1 peak area by the total peak area of the chromatogram.
# [4] = normal saline, saline or isotonic, Saline, 25° C.
compound,measurement,setting,value
"CCCCc1nc2c(N)nc3ccccc3c2n1CCCCNC(C)=O [IRM 2, N-[4-(4-Amino-2-butyl-1H-imidazo[4,5-c]quinolin-1-yl)butyl]acetamide, reference compound]",solubility at 7 days,[1]; [4],40 µM
same,solubility at 7 days,"[1]; phosphate buffered saline (PBS), aqueous buffer, Phosphate Buffered Saline, pH 7.4, 25° C.",70 µM
CCCCc1nc2c(N)nc3ccccc3c2n1CCCCNC(=O)CCOCCOCCOCCOCCOCCOCCOCCOCCOCCOCCOCCOCCOCCOCCOCCOCCOCCOCCOCCOCCOCCOCCOCCOCCOCCOCCOCCOCCOCCOCCOCCOCCOCCOCCOCCOCCOCCOCCOCCOCCOCCOCCOCCOCCOCCOC [Example 6],Solubility Fold Increase,"[1]; Phosphate Buffered Saline, pH 7.4",75.97
same,Solubility Fold Increase,[1]; Saline,142.50
same,solubility at 7 days,"[1]; aqueous buffer, Phosphate Buffered Saline, pH 7.4, 25° C.",5590 µM
same,solubility at 7 days,[1]; [4],5970 µM
same,Minimum Effective Concentration (µM) IFN-α,[2],30 µM
same,Minimum Effective Concentration (µM) TNF,[2],> 30 µM
CCOCc1nc2c(NC(=O)CCOCCOCCOCCOCCOCCOCCOCCOCCOCCOCCOCCOCCOCCOCCOCCOCCOCCOCCOCCOCCOCCOCCOCCOCCOCCOCCOCCOCCOCCOCCOCCOCCOCCOCCOCCOCCOCCOCCOCCOCCOCCOCCOCCOCCOCCOC)nc3ccccc3c2n1CC(C)(C)O [Example 7],% IRM1,"[3]; Citrate Buffered Saline, pH 4, 37° C., time 0 hr",2.9%
same,% IRM1,"[3]; Citrate Buffered Saline, pH 4, 37° C., time 6 hr",5.7%
same,% IRM1,"[3]; Citrate Buffered Saline, pH 4, 37° C., time 10 hr",7.4%
same,% IRM1,"[3]; Citrate Buffered Saline, pH 4, 37° C., time 13 hr",9.4%
same,% IRM1,"[3]; Citrate Buffered Saline, pH 4, 37° C., time 17 hr",10.6%
same,% IRM1,"[3]; Citrate Buffered Saline, pH 4, 37° C., time 20 hr",12.1%
same,% IRM1,"[3]; Citrate Buffered Saline, pH 4, 37° C., time 23 hr",13.0%
same,% IRM1,"[3]; Citrate Buffered Saline, pH 4, 37° C., time 28 hr",16.5%
same,% IRM1,"[3]; Citrate Buffered Saline, pH 4, 37° C., time 30 hr",17.1%
same,% IRM1,"[3]; Phosphate Buffered Saline, pH 7.4, 37° C., time 1 hr",1.3%
same,% IRM1,"[3]; Phosphate Buffered Saline, pH 7.4, 37° C., time 5 hr",1.5%
same,% IRM1,"[3]; Phosphate Buffered Saline, pH 7.4, 37° C., time 10 hr",1.7%
same,% IRM1,"[3]; Phosphate Buffered Saline, pH 7.4, 37° C., time 13 hr",1.8%
same,% IRM1,"[3]; Phosphate Buffered Saline, pH 7.4, 37° C., time 18 hr",1.9%
same,% IRM1,"[3]; Phosphate Buffered Saline, pH 7.4, 37° C., time 20 hr",2.1%
same,% IRM1,"[3]; Phosphate Buffered Saline, pH 7.4, 37° C., time 23 hr",2.1%
same,% IRM1,"[3]; Phosphate Buffered Saline, pH 7.4, 37° C., time 27 hr",2.3%
same,% IRM1,"[3]; Phosphate Buffered Saline, pH 7.4, 37° C., time 30 hr",2.4%
same,Minimum Effective Concentration (µM) IFN-α,[2],3.33 µM
same,Minimum Effective Concentration (µM) TNF,[2],30 µM
